This passage reports IFN-γ ELISPOT (fold against the p24fc-immunized group) and frequency of p24-specific tetramer^+ CD8^+ T cells results from US20140302070A1.

In assay [1] the target is MHC class I H2-K^d-… (HIV-1; mouse) (UniProt P01902).
For assay [2] the target is unchanged. Briefly: H2-K^d-… tetramer staining of splenocytes, flow cytometry.

As for “splenocytes (T cells) of mice immunized with human sΔ42PD1-p24fc DNA (cells without a defined receptor)”, the IFN-γ ELISPOT (fold against the p24fc-immunized group) in assay [1] stood at 10.

In assay [2], “splenocytes (T cells) of mice vaccinated with msΔ42PD1-p24fc DNA (cells without a defined receptor)” showed a frequency of p24-specific tetramer^+ CD8^+ T cells of 17%.
